{"source": "the DeepSol protein solubility set"}
{"assay": "soluble on expression in E. coli; label from the status in PepcDB or PDB records"}
{"sequence": "MEPTEKSMLLETTSTTKMETKYEDMLPVMAEKMDVEEFVSELCKGFSLLADPERHLITAESLRRNSGILGIEGMSKEDAQGMVREGDLDGDGALNQTEFCVLMVRLSPEMMEDAETWLEKALTQELCNHNLSSMP", "soluble on expression in E. coli": "soluble"}
{"sequence": "GPGSMQQSLIPGHNNNRHLTYDEVENNIGGLPVTDNRIQDLFDSLDVDHSGTVSVEVVKKFYMGLEHYGVDLSDKELDEMVRKYAATHDESLSYEEFACFVLSLAQW", "soluble on expression in E. coli": "soluble"}
{"sequence": "MADDFKTAQMNNPHLRNYVEKFKKTYMKVPEFVPSLSRDFKEIKYPNIIYPIGDPIFIHLYGTPNLKTRYIAIEPKLNGSEERKKYFDILDKILEYAPYSDIPENDEEFGKVVTKLFDMVAK", "soluble on expression in E. coli": "not soluble"}
{"sequence": "AFVKMVGHHVAFLEADVLQAERDHGAFPQALRRWLGSAGLPSFRNVSGVQWHNPSSLQPPPPGFK", "soluble on expression in E. coli": "not soluble"}
{"sequence": "MGSDKIHHHHHHMIILFGNQKGGCGKTTNCIQFANYLVEKGKEVLVLDLDFQRSLSDRRKEDIATYDNEPKYEVIQTDISNVAKIISDFTKVEQGNLLIDLPGKIDDDALGTILKAADIIICPFKYDKFTMDSTGFFIQVLQYLNVKAKIFFLPNNMRAAVRYETKEQVVDILKQVGFVTDEIPASVAMERINTLTISNECIDKVKNAYDYIIQEGAIK", "soluble on expression in E. coli": "not soluble"}
{"sequence": "MGELFLVGMGPGDLPGLTQRAREALEGAEVVIGYSTYVKLLEEMGLLAGKEVVRKGMTEELDRAEEALERALSGQRVALVSGGDPGIYGMAAPVLELMEERGLKRVDGGVGLPGRFAGEEGEVFLAVIPGVTAANAVASLLESPLAHDTCLISLSDLLTPWPLIERRLHAAGQGDFVVVLYNPQSKRRDWQLRKSAEILLEYRPKETPAALVKSAYRKRQEVALTTLEGLREAEAGMLTTVVIGNRQSRFYEGTFLTPRGYALKYDLDTKEALPGETPGLSLVSPEGASSGRRDA", "soluble on expression in E. coli": "soluble"}
{"sequence": "MGSDKIHHHHHHMSALLEVKGLNVSFRQDGRISQAVRGVSFTVNRGETVALVGESGSGKSVSALSTVSLLGDSAIVEGSVTYDGQEMIGASEQRLMDVRGNDISFIFQEPMTSLNPLHTIRKQMAESLALHQGLVGAAALERILELLVKVGIRDPETRLDAYPHQLSGGQRQRVMIAMALANKPDILIADEPTTALDVTIQAQILELLADLQREENMGMLFITHDLGIVRRIADRVCVMKAGEIVESGSTEEIFANPRHPYTRKLLAAEPKGRPDPVPAGAEEVARTDHLRVWFPIQRGFLRRTVGHVKAVNDASISVRAGETLGIVGESGSGKTTLALAIMRLIGSEGGITFRGEDVRSWSTRELRRLRKDMQIVFQDPFGSLSPRMTCAQIISEGLAIHKVDPHRAPRELVAEVMQEVGLDPATMDRYPHEFSGGQRQRIAIARAMVLRPRLLVLDEPTSALDMTVQVQIVALLRDLQRKYGLAYLFISHDLKVVRAMSHKVIVMRQGDVIEMGETEALFTNAQTDYTRSLIAAAG", "soluble on expression in E. coli": "not soluble"}
{"sequence": "MEMEKEFEQIDKSGSWAAIYQDIRHEASDFPCRVAKLPKNKNRNRYRDVSPFDHSRIKLHQEDNDYINASLIKMEEAQRSYILTQGPLPNTCGHFWEMVWEQKSRGVVMLNRVMEKGSLKCAQYWPQKEEKEMIFEDTNLKLTLISEDIKSYYTVRQLELENLTTQETREILHFHYTTWPDFGVPESPASFLNFLFKVRESGSLSPEHGPVVVHCSAGIGRSGTFCLADTCLLLMDKRKDPSSVDIKKVLLDMRKFRMGLIATAEQLRFSYLAVIEGAKFIMGDSSVQDQWKELSHEDLEPPPEHIPPPPRPPKRILEPHNGKCREFFPN", "soluble on expression in E. coli": "soluble"}
{"sequence": "MDFLEKVLDNQVTESKELVRLYDYDLYTLGEVADRMRQNMHQKIVYFNVNRHLNPSNICADACKFCAFSAHRKNPNPYEMSLEEILEKVKNSYNKGIKEVHIVSAHNPNYSYEWYLKVFETIKQEMPNLHLKAMTAAEVHFLSVKFNKPFELVLEDMLKAGVDSMPGGGAEIFDEEIRRKICNGKVGSSRWLEIHAYWHKLGKMSNATMLFGHIENKIHRIDHMLRIKKIQSPKNQVENKEGGFNAFIPLLYQKENNYLNVEKSPSAIEILKTIAISRILLNNIPHIKAYWATLGLNLALVAQEFGANDLDGTIEIESIQSAAGAKSRHGLEKEDLIFKIKDAGFVAVERDSLYNFIQKF", "soluble on expression in E. coli": "not soluble"}
{"sequence": "MSRRSNRTINLPAPYLKRIWLDPSQVHDREAYPFCLPIFPDDFELSFDAAITIIVGENGTGKSTILEGIAALAGYDDAGGGKGYMPVDHSDAREKMGGQLSKALRASWLPKITNGWFFRAESFFSVARYLDKAARDAGQVGPDFLSHSHGEGFLRFFEERCQRQGIFIFDEPESALSPARQIEFLKLLRRMDDSRICQVIMATHSPMLMAYPNAKLLRLGKYGLEPVTVEETDHYRLMREFCDDPRGFVEATLAELEHHHHHH", "soluble on expression in E. coli": "soluble"}
{"sequence": "MNKIYIKNMVCDRCIMVVTNILSQLELKVAHIALGEIVLLCPPTEKQMQELLDQLQKVGFEIIDDKRSRIVEQIKTCIRELVHRKNGMLKTNLSDYLCENIHLDYSYLSGLFSENEGRTIEKYFIYQKIERVKELLVYDDMQLSEIAYIMNYSSVAHLSNQFKKVTGFTPTYFKQMSTQCRKPLDKL", "soluble on expression in E. coli": "not soluble"}
{"sequence": "MKANKVLFITQEITPYVPESEMANMGRFLPQAIQEKGREIRTFMPKWGNVNERRNQLHEVIRLSGMNLIIDDTDHPLIIKVASIQAARMQVYFIDNDDYFQHRQMVADENGVEYKDNDERAIFYARGVLETVKKLRWCPDIIHCQGWMSAFVPLYIKKAYQDEPSFRDSKVVFSVFEDDFKSDCEGNLTEKLMLKGIEKNDVESIVKSPANYEELCKLAIAYSDGVIQNSEKVNENVMKFARESGVPVLDYQPADTYVDAFNEFYDKVWEFEKK", "soluble on expression in E. coli": "not soluble"}
{"sequence": "MSDENLETESTSKALEDILSYTDSPAFRHIFSFFLGRPRIRAKSTLNLDILSEEVVIRKGKLIHTWQNARAVFYNSNIRLQTKNNQDEALQIRNMKVDVHESKRGRALRLKDDDVCYLIIFQRPNILEAWLTRAQQVEKSNHVDASDEQLTLIPEQILNNEARVQILNLRRNSLISRPPTEKSMAPLGYIDDLYRVHSLQVIDLSANQILSFPIQLTLLSHLRQLNLSSNYISSVPSECSNMRRLQYLNLSNNQLDTLPDSISELQNLQSLDISFNQFSQIPPCLFHLTLEMWRLAGNNIEKIDRVGEMQIQKIDLRRNVLDTSFRLDIENITHLDLRDNSMISTVHLTNLRFLKVIHCERLQLSSLHLSGESLTHVYADHNLLDSLVVMPLPQNLQTLSLSFNHFRNLPDWISDCPNLTFLRANNNSLVALPERIFYSQSLRSIFAFINEIEHIPDFGEENCLETLILYKNKLSSLPKHFFSILPRLRQLNISSNFIELLPYFDGSSFCRLQILRCANNYLTENSVPVIVNMKHLKIIDLSHNRLNSFDDSALSSLELLEDLNLSSNRLTRLADCLALLPCLQVLRAHSNQLVHVPEFRASNQLHTIDVSSNNISLGTLQFKAPPNLRHFDVTCNSGDFDTENFPENAKMHSKMNTINISEGSQNLFGFQIGVSGSRGMKNKQCIRQVRVENTFGFIDGGSNSYMSSSICRFMTSYLKENVSMDIRSILLRCHCELGEEGERLGASVMIIRVHEKRLEIASTGTMSAAIARNQKLKMIINGRYEIDDDEYSRIREAHGFVDEENRINGVIGSSRQIGHFSTFPVVLPTHSYRNIQLNEQIEGLIVGNNMIWNMLSIDDLNSTFHNNRSPIVVAKKIQDQLQSYDYGGNSNILVLRRIKPQMTFNGFSTSSTKNQVTPDIAIPKIDEQLVLAVPALILPEYHPSPPVPPPIPAIRHRTPSPPPPPLPSSTPPPVSSEHEEINVRQSSTLSGGYTLSIDRFYSSSSTVSSRKQFNETRDLLSKSLKLSPPNTVTFNI", "soluble on expression in E. coli": "not soluble"}
{"sequence": "MSKAGASLATCYGPVSADVMAKAENIRLLILDVDGVLSDGLIYMGNNGEELKAFNVRDGYGIRCALTSDIEVAIITGRKAKLVEDRCATLGITHLYQGQSNKLIAFSDLLEKLAIAPENVAYVGDDLIDWPVMEKVGLSVAVADAHPLLIPRADYVTRIAGGRGAVREVCDLLLLAQGKLDEAKGQSI", "soluble on expression in E. coli": "soluble"}
{"sequence": "MGSDKIHHHHHHMNIFDILRDYLLVQVDKYNLNMDMISIVSKSLSSKEAIGNTKRKDFPIIVGKEIMLEADFKGAKGQAFTSTPSTFEGSLKDILSLDLHDNPHDRSLFIASLNAVMKYLGKTDRTIHCKNNEPEVCAKKFPEFIKMEFGNPKVAIIGYQPAIIDNIKDFFETRVLDLNPEFVDTIQYNVKIEDGIRDYEDVISWADLVICTGSTLCNNSIINFLSLNKPVYYYGTTIAGASNILGLKRLCFCSK", "soluble on expression in E. coli": "not soluble"}
{"sequence": "MIRITLHTYCISELFSGDLELFASKLEETSQNQKTYSTPRSSDFRAILPTYSTPRSSDFGAILPIHSTTRLSNLSSGHSMTLLDPLVEYHFATLPDNTRPFTLPSYSTPWSSIITHHHQHHSTGHSITSSQSTQIRTQPDKLSTRKRRGEDKVFGSGLDLHRIKKPISAHYLSMGRAIRLLARLLSFYFVLYK", "soluble on expression in E. coli": "soluble"}
{"sequence": "MKKTHVTIGLSNPKSPTNVGAVMRAAGCYQVDDVRYTGERYDRAAKFQTDTKKVASKIPLTSVNCLLDDLPEDMKVVCVELAEGAVSLPQFQHPDKAIYVFGPEDGSITQQVADRADHVVYVPTVGCMNLAATVNVLLYDRLAK", "soluble on expression in E. coli": "not soluble"}
{"sequence": "MTLYVNLAELLGSRIENGFYRPGDRLPSVRALSVEHGVSLSTVQQAYRVLEDSGLAAPKPKSGYFVSVSRHAPALPAVGRPAQRPVDISQWDQVLDLIRVAPREAVTQLGRGMPDVTSPTLKPLMRALGQLSRHQDMPGLYYDNIYGVLRLREQVARLMLDSGCNLTANDVIITNGCHEALSASVRAICSPGDIVAVDSPSFFGAMQTLKGVGMKALEIPTDPLTGISLEALELALEQWPIKVIQLTPNCNNPLGYVMPEARKRALLTLAQRFDVAIIEDDVYGDLAYNYPRPRTIKSFDEDGRVLLCSSFSKTLAPGLRIGWVAPGRYLERVLHMKYIGTGSTAPQPQLAIADFLEGGHYEPHVRRMRTQYQRSRDQMIDWVMRYFPEGTRASRPQGSFMLWVELAEDFDTLRLNRALLDKGVQIAVGSIFSASGKYRNCMRLNYAAKSSREIESAVRIVGETIAQLIAQSD", "soluble on expression in E. coli": "not soluble"}
{"sequence": "MAHHHHHHMGFLDGKRILLTGLLSNRSIAYGIAKACKREGAELAFTYVGDRFKDRITEFAAEFGSELVFPCDVADDAQIDALFASLKTHWDSLDGLVHSIGFAPREAIAGDFLDGLTRENFRIAHDISAYSFPALAKAALPMLSDDASLLTLSYLGAERAIPNYNTMGLAKAALEASVRYLAVSLGAKGVRVNAISAGPIKTLAASGIKSFGKILDFVESNSPLKRNVTIEQVGNAGAFLLSDLASGVTAEVMHVDSGFNAVVGGMAGLEE", "soluble on expression in E. coli": "soluble"}
{"sequence": "MHRTYSLRNSRAPTASQLQNPPPPPSTTKGRFFGKGGLAYSFRRSAAGAFGPELSRKLSQLVKIEKNVLRSMELTANERRDAAKQLSIWGLENDDDVSDITDKLGVLIYEVSELDDQFIDRYDQYRLTLKSIRDIEGSVQPSRDRKDKITDKIAYLKYKDPQSPKIEVLEQELVRAEAESLVAEAQLSNITRSKLRAAFNYQFDSIIEHSEKIALIAGYGKALLELLDDSPVTPGETRPAYDGYEASKQIIIDAESALNEWTLDSAQVKPTLSFKQDYEDFEPEEGEEEEEEDGQGRWSEDEQEDGQIEEPEQEEEGAVEEHEQVGHQQSESLPQQTTA", "soluble on expression in E. coli": "soluble"}
{"sequence": "MSLIDARLATEIVVRTVEVMPFDVNVMDAHGVILASSDAARVGEIHAGAQLALARARAVEIDDAMAANLSGARPGINLPLSVRGKVCGVIGVTGEPDAVRGFGELLRVTAELILEREQLTVELRRNARHREEFVLQLLRRTAAAAELEAWADRLGIDMRLAHAAIVCRLSGVDTEPEAGVGQIEAMQSQLAQEWPQLLSAKTSYRELVMFDAVDARAGRDGVLATHAGKRLAALEDTLRKVATQPFSLALGIALDGIDGFERSYQCALATLRVGAARTPQRAAYSYYDFVLPVLLSALSQGWQARQLRLPLTRLLARERRSGALLDTLKAWYAHDGHPSATAQALGIHRNTLDYRLQQIRDATGLDLGAIDDRLWLYIALQTMAGEGHHHHHH", "soluble on expression in E. coli": "soluble"}
